{
  "source": "patent US20090203602A1",
  "about": "(AMERICAN TYPE CULTURE COLLECTION, published 2009)",
  "experiment_in_all_cases": "cell-based or functional assay",
  "key": {"PDK1 (h)": {"target": "T1, PDK1 (h) (human, UniProt O15530 1-556, limits assumed)", "T1 sequence (looked up)": "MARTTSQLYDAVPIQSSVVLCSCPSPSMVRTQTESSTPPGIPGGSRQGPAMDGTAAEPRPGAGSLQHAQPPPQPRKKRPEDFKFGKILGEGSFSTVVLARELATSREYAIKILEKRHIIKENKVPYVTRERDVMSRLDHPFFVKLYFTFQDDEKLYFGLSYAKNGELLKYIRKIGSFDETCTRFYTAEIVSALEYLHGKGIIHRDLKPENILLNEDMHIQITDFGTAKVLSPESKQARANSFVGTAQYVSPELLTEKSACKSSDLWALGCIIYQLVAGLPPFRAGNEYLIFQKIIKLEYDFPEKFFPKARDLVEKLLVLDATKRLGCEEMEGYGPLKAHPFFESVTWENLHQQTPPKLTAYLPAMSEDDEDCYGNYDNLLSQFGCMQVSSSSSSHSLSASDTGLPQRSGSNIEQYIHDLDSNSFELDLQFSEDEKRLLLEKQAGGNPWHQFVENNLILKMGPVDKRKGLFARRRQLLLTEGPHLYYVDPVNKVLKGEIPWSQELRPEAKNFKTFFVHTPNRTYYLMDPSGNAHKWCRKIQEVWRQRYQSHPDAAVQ"}, "[1]": {"target": "RPS6KB1 (p70S6K) Ribosomal protein S6 kinase, 70 kDa, polypeptide 1 (human, UniProt P23443 1-421, limits assumed)", "sequence (P23443 1-421 limits assumed)": "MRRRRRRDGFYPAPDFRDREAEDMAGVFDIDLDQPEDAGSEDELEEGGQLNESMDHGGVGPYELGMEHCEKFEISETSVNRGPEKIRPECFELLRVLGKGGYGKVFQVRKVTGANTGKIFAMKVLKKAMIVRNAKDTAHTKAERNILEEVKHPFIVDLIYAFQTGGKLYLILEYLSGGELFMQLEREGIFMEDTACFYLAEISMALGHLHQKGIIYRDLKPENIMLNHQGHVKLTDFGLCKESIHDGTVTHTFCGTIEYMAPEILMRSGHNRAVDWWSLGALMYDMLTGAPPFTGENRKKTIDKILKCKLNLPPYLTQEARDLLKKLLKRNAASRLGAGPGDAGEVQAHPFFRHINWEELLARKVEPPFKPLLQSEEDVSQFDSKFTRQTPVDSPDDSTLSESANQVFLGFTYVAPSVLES"}, "MAPK1 (h)": {"target": "MAPK1 (h) (human, UniProt P28482)", "sequence (P28482 2-360)": "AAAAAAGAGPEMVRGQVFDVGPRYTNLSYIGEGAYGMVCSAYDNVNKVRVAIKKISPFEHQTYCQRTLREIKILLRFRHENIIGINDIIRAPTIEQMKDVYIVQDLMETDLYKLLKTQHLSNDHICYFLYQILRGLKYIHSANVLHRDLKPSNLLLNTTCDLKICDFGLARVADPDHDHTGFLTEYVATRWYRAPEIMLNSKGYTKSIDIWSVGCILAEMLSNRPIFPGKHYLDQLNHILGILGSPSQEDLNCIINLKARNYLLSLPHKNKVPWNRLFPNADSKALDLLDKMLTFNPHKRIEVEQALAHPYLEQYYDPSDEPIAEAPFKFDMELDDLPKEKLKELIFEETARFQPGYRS"}, "PKCζ (h)": {"target": "T2, PKCζ (h) (human, UniProt Q05513 1-592, limits assumed)", "T2 sequence (looked up)": "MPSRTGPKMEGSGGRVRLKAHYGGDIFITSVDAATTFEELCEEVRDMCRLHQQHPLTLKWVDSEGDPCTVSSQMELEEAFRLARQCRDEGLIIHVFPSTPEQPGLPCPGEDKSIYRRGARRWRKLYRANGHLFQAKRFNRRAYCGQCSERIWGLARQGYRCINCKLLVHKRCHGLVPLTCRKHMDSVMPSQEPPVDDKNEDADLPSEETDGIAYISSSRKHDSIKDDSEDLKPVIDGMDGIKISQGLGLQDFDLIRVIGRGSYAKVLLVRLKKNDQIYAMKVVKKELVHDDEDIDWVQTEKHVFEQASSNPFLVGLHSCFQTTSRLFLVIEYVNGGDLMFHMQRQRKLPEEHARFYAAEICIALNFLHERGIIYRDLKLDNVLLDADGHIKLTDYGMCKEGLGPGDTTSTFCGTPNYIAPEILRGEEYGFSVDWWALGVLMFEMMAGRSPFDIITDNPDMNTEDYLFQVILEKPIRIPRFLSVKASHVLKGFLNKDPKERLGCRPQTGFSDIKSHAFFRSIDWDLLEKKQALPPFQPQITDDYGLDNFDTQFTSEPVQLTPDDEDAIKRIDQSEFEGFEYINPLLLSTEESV"}, "IR (h)": {"target": "IR (h) (human, UniProt P06213 1005-1310, limits assumed)", "sequence (P06213 1005-1310 limits assumed)": "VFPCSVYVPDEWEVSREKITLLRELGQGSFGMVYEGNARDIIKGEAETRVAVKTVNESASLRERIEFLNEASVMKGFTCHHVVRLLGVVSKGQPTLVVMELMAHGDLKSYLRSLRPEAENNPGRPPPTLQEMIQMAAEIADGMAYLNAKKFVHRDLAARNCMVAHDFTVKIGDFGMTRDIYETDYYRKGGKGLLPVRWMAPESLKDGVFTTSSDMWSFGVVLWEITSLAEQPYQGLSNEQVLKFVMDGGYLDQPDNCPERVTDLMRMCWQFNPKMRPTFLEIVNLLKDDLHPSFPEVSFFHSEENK"}, "PKA(h)": {"target": "PKA(h) (human, UniProt P17612 1-351)"}, "GSK3β (h)": {"target": "GSK3β (h) (human, UniProt P49841 1-420, limits assumed)", "sequence (P49841 whole entry)": "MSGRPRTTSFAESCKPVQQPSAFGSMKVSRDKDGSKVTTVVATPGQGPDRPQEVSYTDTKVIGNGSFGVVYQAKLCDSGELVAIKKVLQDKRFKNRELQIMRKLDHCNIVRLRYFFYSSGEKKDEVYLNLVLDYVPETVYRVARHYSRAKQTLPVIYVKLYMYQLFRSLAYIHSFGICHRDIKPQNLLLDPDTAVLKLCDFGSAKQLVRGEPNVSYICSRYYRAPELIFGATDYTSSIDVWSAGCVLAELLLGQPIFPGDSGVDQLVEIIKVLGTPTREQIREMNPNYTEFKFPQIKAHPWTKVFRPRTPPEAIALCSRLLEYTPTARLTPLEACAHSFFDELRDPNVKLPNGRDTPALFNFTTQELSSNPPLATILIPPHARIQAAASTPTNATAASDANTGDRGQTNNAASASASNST"}, "[2]": {"target": "T3, SGK (SGK1) Serum/glucocorticoid regulated kinase (human, UniProt O00141 60-431, limits assumed)", "T3 sequence (looked up)": "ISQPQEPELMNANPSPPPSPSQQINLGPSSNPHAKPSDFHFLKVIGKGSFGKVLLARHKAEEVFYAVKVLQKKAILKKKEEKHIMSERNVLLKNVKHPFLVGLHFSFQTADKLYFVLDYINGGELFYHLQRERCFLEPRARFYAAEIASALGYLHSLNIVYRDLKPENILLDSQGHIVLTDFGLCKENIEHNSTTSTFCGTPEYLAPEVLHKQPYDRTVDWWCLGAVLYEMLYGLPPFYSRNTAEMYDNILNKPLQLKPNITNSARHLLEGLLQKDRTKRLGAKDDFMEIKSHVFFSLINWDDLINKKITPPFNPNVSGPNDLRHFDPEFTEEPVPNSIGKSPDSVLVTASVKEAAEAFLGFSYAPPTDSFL"}, "PKCβII (h)": {"target": "PKCβII (h) (human, UniProt P05771-2 1-673)", "sequence (P05771 other isoform, or with tags, fused parts or gaps limits assumed)": "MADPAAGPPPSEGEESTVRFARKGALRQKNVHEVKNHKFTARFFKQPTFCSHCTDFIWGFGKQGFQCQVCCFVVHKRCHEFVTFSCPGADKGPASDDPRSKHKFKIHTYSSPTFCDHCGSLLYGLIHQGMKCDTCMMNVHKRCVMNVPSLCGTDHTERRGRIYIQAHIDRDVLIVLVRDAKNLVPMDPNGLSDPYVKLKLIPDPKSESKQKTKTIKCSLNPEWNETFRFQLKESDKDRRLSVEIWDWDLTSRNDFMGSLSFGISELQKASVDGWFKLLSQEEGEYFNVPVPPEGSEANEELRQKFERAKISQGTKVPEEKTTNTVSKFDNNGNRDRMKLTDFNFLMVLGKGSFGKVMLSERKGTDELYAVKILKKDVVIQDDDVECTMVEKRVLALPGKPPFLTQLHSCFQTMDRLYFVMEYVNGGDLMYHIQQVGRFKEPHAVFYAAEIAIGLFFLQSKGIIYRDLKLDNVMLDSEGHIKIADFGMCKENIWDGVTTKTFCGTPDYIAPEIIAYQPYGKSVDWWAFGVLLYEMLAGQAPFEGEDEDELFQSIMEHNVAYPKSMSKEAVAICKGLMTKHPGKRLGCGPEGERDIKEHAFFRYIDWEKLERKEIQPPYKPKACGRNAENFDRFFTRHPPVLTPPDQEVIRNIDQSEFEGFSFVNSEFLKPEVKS"}, "PKBβ (h)": {"target": "PKBβ (h) (human, UniProt P31751 1-481, limits assumed)", "sequence (P31751 whole entry)": "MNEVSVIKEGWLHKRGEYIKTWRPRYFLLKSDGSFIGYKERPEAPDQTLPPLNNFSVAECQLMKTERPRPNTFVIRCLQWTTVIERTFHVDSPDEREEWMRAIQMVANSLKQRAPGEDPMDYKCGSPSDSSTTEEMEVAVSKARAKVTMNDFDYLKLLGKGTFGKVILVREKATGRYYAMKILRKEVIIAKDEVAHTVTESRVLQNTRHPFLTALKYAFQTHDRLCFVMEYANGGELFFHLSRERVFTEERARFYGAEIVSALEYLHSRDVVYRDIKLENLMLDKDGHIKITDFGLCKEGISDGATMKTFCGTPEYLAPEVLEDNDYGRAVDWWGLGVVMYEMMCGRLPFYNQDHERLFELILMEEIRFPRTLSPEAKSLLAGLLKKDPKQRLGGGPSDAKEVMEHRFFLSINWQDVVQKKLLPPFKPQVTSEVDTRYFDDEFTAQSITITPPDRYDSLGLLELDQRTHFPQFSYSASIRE"}, "MAPK2 (h)": {"target": "MAPK2 (h) (human, UniProt P28482 1-360, limits assumed)", "sequence (P28482 whole entry)": "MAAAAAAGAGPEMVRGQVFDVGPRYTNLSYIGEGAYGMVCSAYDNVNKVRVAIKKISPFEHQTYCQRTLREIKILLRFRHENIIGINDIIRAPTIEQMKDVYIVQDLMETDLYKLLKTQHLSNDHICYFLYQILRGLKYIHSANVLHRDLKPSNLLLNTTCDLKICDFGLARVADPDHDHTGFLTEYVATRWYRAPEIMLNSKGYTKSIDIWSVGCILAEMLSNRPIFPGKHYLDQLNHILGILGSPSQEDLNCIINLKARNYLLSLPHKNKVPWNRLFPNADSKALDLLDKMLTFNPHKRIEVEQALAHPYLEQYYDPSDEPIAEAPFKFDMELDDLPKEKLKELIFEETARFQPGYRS"}, "IKKβ(h)": {"target": "T4, IKKβ(h) (human, UniProt O14920 1-756, limits assumed)", "T4 sequence (looked up)": "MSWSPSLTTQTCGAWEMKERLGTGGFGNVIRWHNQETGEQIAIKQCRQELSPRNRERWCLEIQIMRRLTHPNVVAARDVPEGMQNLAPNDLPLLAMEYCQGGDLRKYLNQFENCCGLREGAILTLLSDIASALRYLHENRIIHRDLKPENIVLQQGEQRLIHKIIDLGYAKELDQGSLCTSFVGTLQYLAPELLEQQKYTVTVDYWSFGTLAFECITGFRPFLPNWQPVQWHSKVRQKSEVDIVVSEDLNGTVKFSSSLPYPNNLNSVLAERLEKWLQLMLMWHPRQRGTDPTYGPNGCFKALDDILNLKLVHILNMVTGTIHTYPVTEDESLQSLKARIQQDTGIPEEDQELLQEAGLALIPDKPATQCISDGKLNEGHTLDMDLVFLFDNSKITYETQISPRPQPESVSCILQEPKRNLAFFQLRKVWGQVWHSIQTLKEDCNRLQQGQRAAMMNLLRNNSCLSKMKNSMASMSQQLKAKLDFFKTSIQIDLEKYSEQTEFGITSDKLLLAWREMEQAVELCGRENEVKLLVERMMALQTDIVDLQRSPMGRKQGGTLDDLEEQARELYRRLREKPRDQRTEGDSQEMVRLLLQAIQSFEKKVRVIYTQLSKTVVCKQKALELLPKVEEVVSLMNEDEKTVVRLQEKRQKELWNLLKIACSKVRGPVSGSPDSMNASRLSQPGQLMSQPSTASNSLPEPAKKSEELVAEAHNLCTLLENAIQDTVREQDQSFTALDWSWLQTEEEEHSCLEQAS"}},
  "data": [
    {"binder": "SGRPPMIVWFNRPFLIAVSHTHGQTILFMAKVINPVGA", "note": "[D3 peptide]", "values": [
      {"measurement": "D3 at 0.1 µM % activity", "setting": "PDK1 (h)", "value": 98, "unit": "% activity"},
      {"measurement": "D3 at 1 µm % activity", "setting": "PDK1 (h)", "value": 108, "unit": "% activity"},
      {"measurement": "D3 at 0.1 µM % activity", "setting": "[1]", "value": 73, "unit": "% activity"},
      {"measurement": "D3 at 1 µm % activity", "setting": "[1]", "value": 22, "unit": "% activity"},
      {"measurement": "D3 at 0.1 µM % activity", "setting": "MAPK1 (h)", "value": 86, "unit": "% activity"},
      {"measurement": "D3 at 1 µm % activity", "setting": "MAPK1 (h)", "value": 92, "unit": "% activity"},
      {"measurement": "D3 at 0.1 µM % activity", "setting": "PKCζ (h)", "value": 95, "unit": "% activity"},
      {"measurement": "D3 at 1 µm % activity", "setting": "PKCζ (h)", "value": 42, "unit": "% activity"},
      {"measurement": "D3 at 0.1 µM % activity", "setting": "IR (h)", "value": 96, "unit": "% activity"},
      {"measurement": "D3 at 1 µm % activity", "setting": "IR (h)", "value": 103, "unit": "% activity"},
      {"measurement": "D3 at 0.1 µM % activity", "setting": "PKA(h)", "value": 115, "unit": "% activity"},
      {"measurement": "D3 at 1 µm % activity", "setting": "PKA(h)", "value": 105, "unit": "% activity"},
      {"measurement": "D3 at 0.1 µM % activity", "setting": "GSK3β (h)", "value": 101, "unit": "% activity"},
      {"measurement": "D3 at 1 µm % activity", "setting": "GSK3β (h)", "value": 100, "unit": "% activity"},
      {"measurement": "D3 at 0.1 µM % activity", "setting": "[2]", "value": 74, "unit": "% activity"},
      {"measurement": "D3 at 1 µm % activity", "setting": "[2]", "value": 5, "unit": "% activity"},
      {"measurement": "D3 at 0.1 µM % activity", "setting": "PKCβII (h)", "value": 101, "unit": "% activity"},
      {"measurement": "D3 at 1 µm % activity", "setting": "PKCβII (h)", "value": 103, "unit": "% activity"},
      {"measurement": "D3 at 0.1 µM % activity", "setting": "PKBβ (h)", "value": 63, "unit": "% activity"},
      {"measurement": "D3 at 1 µm % activity", "setting": "PKBβ (h)", "value": 12, "unit": "% activity"},
      {"measurement": "D3 at 0.1 µM % activity", "setting": "MAPK2 (h)", "value": 96, "unit": "% activity"},
      {"measurement": "D3 at 1 µm % activity", "setting": "MAPK2 (h)", "value": 96, "unit": "% activity"},
      {"measurement": "D3 at 0.1 µM % activity", "setting": "IKKβ(h)", "value": 103, "unit": "% activity"},
      {"measurement": "D3 at 1 µm % activity", "setting": "IKKβ(h)", "value": 71, "unit": "% activity"}
    ]}
  ]
}
